Data published in patent US20090130105A1 (Biogen, published 2009).

B1: M13-C06 antibody (antibody, V domains shown)
VH: EVQLLESGGGLVQPGGSLRLSCAASGFTFSIYRMQWVRQAPGKGLEWVSGISPSGGTTWYADSVKGRFTISRDNSKNTLYLQMNSLRAEDTAVYYCARWSGGSGYAFDIWGQGTMVTVSS
VL: DIQMTQSPLSLSASVGDRVTITCQASRDIRNYLNWYQQKPGKAPKLLIYDASSLQTGVPSRFGGSGSGTDFSFTIGSLQPEDIATYYCQQFDSLPHTFGQGTKLEIK
notes: Fully human full-length antibody (ATCC PTA-7444); also called M13.C06.G4.P.agly; M13-C06.G4P.agly
B2: M13-C06 Fab (Fab, V domains shown)
VH: EVQLLESGGGLVQPGGSLRLSCAASGFTFSIYRMQWVRQAPGKGLEWVSGISPSGGTTWYADSVKGRFTISRDNSKNTLYLQMNSLRAEDTAVYYCARWSGGSGYAFDIWGQGTMVTVSS
VL: DIQMTQSPLSLSASVGDRVTITCQASRDIRNYLNWYQQKPGKAPKLLIYDASSLQTGVPSRFGGSGSGTDFSFTIGSLQPEDIATYYCQQFDSLPHTFGQGTKLEIK
notes: Fab made by enzymatic digestion of the IgG

Columns and labels:
human IGF-1R(1-903)-Fc [1] = molecular target: T1, human IGF-1R(1-903)-Fc (human, UniProt P08069 31-933); assay: ELISA, blocking of 320 nM IGF-1 His on biotinylated hIGF-1R-Fc
T1 construct: also called hIGF-1R-Fc; SDWT; not shown: human IgG1 Fc, C-terminal tag
Protocol: hIGF-1R-Fc was biotinylated using EZ-Link Sulfo-NHS-LC-Biotin according to the protocol provided by the manufacturer (Pierce Cat. No. 21335). Biotinylated human IGF-1R Fc (NB12453-9) at 5 μg/ml was added to the wells of SigmaScreen streptavidin-coated 96-well plates (Sigma, Cat. No. M5432-5EA) at 100 μL/well and incubated overnight at 2-8° C. The plates were then washed four times with 200 μL/well PBST. […] The dilutions were added to the plates in duplicate at 100 μL/well and the plates were incubated at RT for 1 hour. The plates were then washed four times with 200 μL/well PBST. An HRP-conjugated anti-Histag antibody (Penta-His HRP Conjugate, QIAGEN, Cat. No. 1014992) was diluted 1:1000 in PBST and added to plates at 100 μL/well, and the plates were incubated at RT for one hour. The plates were then washed four times with 200 μL/well PBST. SureBlue Reserve TMB Microwell Peroxidase Substrate (KPL, Cat. No. 53-00-01) was added to plates at 100 μL/well followed by 1% phosphoric acid at 100 μL/well once the desired reaction was observed. The absorbance of each well was determined at 450 nm, and the results were normalized and plotted against the log of antibody concentration.

sIGF-1R(1-903) = molecular target: T2, sIGF-1R(1-903) (human, UniProt P08069 31-933); assay: ITC, 25 °C, antibody into sIGF-1R(1-903)
T2 construct: also called soluble IGF-1R ectodomain
Protocol: Isothermal Titration Calorimetry (ITC). […] The reagents were co-dialyzed against PBS, pH 7.2. The protein solutions were adjusted to the concentrations listed above by dilution using PBS dialysate. […] The protein solutions were prepared as described above for the MAb binding experiments. All ITC experiments were performed on an ITC₂₀₀ microcalorimeter (MicroCal, LLC) at 25° C. […] IGF-1R bispecific antibodies. A four minute equilibration period was used between all injections with an initial delay of 60 seconds. Numerical integration of the data was performed using the ITC data analysis software supplied by MicroCal (Origin). ΔHA° (T) values were calculated based on the difference between the average heat liberated/absorbed during the binding phase of the injections and the average heat of dilution found once the receptor, IGF-1R, was saturated with MAb or BsAb.

human IGF-1R(1-903)-Fc [2] = molecular target: T1, human IGF-1R(1-903)-Fc; assay: IGF-1 blocking ELISA at 80 nM IGF-1 His on biotinylated hIGF-1R-Fc
Protocol: The dilutions were added to the plates in duplicate at 100 μL/well and the plates were incubated at RT for 1 hour. The plates were then washed four times with 200 μL/well PBST. An HRP-conjugated anti-Histag antibody (Penta-His HRP Conjugate, QIAGEN, Cat. No. 1014992) was diluted 1:1000 in PBST and added to plates at 100 μL/well, and the plates were incubated at RT for one hour. The plates were then washed four times with 200 μL/well PBST. SureBlue Reserve TMB Microwell Peroxidase Substrate (KPL, Cat. No. 53-00-01) was added to plates at 100 μL/well followed by 1% phosphoric acid at 100 μL/well once the desired reaction was observed. The absorbance of each well was determined at 450 nm, and the results were normalized and plotted against the log of antibody concentration.
Ligand Blocking Properties.

[3] = molecular target: T3, hIGF-1R-Fc mutant SD009 (E264K) (human, UniProt P08069 31-933); assay: SPR: receptor-Fc captured on M13-C06 chip, then M13-C06 Fab; relative to wild type
T3 construct: not shown: human IgG1 Fc, C-terminal tag
Protocol: (§1) After, completion of the receptor-Fc loading step, flow rates were elevated to 5 μl/min. […] At the end of each sensorgram, the flow rate was elevated to 30 μl/min and the chip surface was regenerated by 2×10 μL injections of 0.1 M glycine, pH 2.

[4] = molecular target: T4, hIGF-1R-Fc mutant SD006 (A227K) (human, UniProt P08069 31-933); assay: as above
T4 construct: not shown: human IgG1 Fc, C-terminal tag
Protocol: as §1

[5] = molecular target: T5, hIGF-1R-Fc mutant SD019 (E739W, L741F) (human, UniProt P08069 31-933); assay: as above
T5 construct: not shown: human IgG1 Fc, C-terminal tag
Protocol: as §1

[6] = molecular target: T6, hIGF-1R-Fc mutant SD013 (D405K) (human, UniProt P08069 31-933); assay: as above
T6 construct: not shown: human IgG1 Fc, C-terminal tag
Protocol: as §1

[7] = molecular target: T7, hIGF-1R-Fc mutant SD001 (Y28A) (human, UniProt P08069 31-933); assay: as above
T7 construct: not shown: human IgG1 Fc, C-terminal tag
Protocol: as §1

human IGF-1R(1-903)-Fc [8] = molecular target: T1, human IGF-1R(1-903)-Fc; assay: as above
Protocol: as §1

[9] = molecular target: T8, hIGF-1R-Fc mutant SD017 (I650S) (human, UniProt P08069 31-933); assay: as above
T8 construct: not shown: human IgG1 Fc, C-terminal tag
Protocol: as §1

[10] = molecular target: T9, hIGF-1R-Fc mutant SD004 (S210H, A211Q) (human, UniProt P08069 31-933); assay: as above
T9 construct: not shown: human IgG1 Fc, C-terminal tag
Protocol: as §1

[11] = molecular target: T10, hIGF-1R-Fc mutant SD008 (S257F) (human, UniProt P08069 31-933); assay: as above
T10 construct: not shown: human IgG1 Fc, C-terminal tag
Protocol: as §1

[12] = molecular target: T11, hIGF-1R-Fc mutant SD007 (N237G) (human, UniProt P08069 31-933); assay: as above
T11 construct: not shown: human IgG1 Fc, C-terminal tag
Protocol: as §1

T1 sequence (P08069 31-933): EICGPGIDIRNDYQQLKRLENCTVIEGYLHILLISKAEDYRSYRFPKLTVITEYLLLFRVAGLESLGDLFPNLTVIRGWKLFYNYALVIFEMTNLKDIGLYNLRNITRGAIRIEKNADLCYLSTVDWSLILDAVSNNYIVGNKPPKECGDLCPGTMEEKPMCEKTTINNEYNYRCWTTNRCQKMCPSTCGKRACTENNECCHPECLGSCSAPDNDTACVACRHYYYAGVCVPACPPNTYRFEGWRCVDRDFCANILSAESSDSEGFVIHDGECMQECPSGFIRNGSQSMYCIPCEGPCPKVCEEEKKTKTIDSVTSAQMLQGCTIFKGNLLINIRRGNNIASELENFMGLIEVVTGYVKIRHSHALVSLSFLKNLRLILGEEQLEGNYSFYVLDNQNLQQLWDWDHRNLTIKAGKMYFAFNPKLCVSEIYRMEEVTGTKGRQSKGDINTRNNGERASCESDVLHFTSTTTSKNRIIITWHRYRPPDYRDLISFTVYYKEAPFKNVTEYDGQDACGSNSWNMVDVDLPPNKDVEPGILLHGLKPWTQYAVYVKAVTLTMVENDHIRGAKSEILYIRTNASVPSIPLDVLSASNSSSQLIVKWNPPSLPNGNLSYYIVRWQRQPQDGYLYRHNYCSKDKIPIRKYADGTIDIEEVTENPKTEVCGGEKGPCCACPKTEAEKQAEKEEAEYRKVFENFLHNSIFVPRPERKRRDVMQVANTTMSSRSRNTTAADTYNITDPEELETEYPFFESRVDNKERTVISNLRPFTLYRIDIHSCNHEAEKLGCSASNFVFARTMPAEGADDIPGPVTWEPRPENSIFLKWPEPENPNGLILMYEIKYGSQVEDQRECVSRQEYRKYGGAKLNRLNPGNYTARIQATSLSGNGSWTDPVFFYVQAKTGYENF
T10 sequence (P08069 31-933 S287F): as the sequence (P08069 31-933) above, with S257F counted along it
T4 sequence (P08069 31-933 A257K): as the sequence (P08069 31-933) above, with A227K counted along it
T5 sequence (P08069 31-933 E769W/L771F): as the sequence (P08069 31-933) above, with E739W, L741F counted along it
T7 sequence (P08069 31-933 Y58A): as the sequence (P08069 31-933) above, with Y28A counted along it
T11 sequence (P08069 31-933 N267G): as the sequence (P08069 31-933) above, with N237G counted along it
T8 sequence (P08069 31-933 I680S): as the sequence (P08069 31-933) above, with I650S counted along it
T2 sequence (P08069 31-933): as the sequence (P08069 31-933) above
T3 sequence (P08069 31-933 E294K): as the sequence (P08069 31-933) above, with E264K counted along it
T9 sequence (P08069 31-933 S240H/A241Q): as the sequence (P08069 31-933) above, with S210H, A211Q counted along it
T6 sequence (P08069 31-933 D435K): as the sequence (P08069 31-933) above, with D405K counted along it

Binder | IC50 (human IGF-1R(1-903)-Fc [1]) [nM] | ΔH° (sIGF-1R(1-903)) [kcal/mol] | IC50 (read off the curve) (human IGF-1R(1-903)-Fc [2]) [nM] | Biacore Relative RUmax [3] | Biacore Relative RUmax [4] | Biacore Relative RUmax [5] | Biacore Relative RUmax [6] | Biacore Relative RUmax [7] | Biacore Relative RUmax (human IGF-1R(1-903)-Fc [8]) | Biacore Relative RUmax [9] | Biacore Relative RUmax [10] | Biacore Relative RUmax [11] | Biacore Relative RUmax [12]
B1 | 1.3 | -21.9 | ~1 |  |  |  |  |  |  |  |  |  | 
B2 |  |  |  | 0.6 | 1.7 | 1.9 | 0.7 | 0.6 | 1 | 2 | 0.8 | 1.5 | 1.3
